From publication PMC8234031, “Modular Assembly of Phosphite Dehydrogenase and Phenylacetone Monooxygenase for Tuning Cofactor Regeneration” (Biomolecules, 2021)

Key:
[1] = molecular target: the molecule itself; assay: SEC; each purified tagged protein alone, in the absence of any other tagged protein; Superdex 200 (10/300), 50 mM Tris–HCl with 150 mM NaCl, pH 7.5
[2] = molecular target: T1, PTDHI (phosphite dehydrogenase with a C-terminal RIDD tag); assay: as above; conditions: both partners purified
T1 chain: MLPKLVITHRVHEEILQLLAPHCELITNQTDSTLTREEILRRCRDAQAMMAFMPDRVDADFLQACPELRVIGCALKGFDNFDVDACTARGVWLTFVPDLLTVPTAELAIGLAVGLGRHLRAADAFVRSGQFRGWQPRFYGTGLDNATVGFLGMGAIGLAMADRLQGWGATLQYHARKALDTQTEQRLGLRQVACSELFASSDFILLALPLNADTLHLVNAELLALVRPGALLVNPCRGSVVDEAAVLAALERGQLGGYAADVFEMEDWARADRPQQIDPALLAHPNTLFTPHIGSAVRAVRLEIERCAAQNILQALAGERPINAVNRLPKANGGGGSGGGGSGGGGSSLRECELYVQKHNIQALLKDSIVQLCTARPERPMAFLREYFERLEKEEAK

B1: PAMOI (phenylacetone monooxygenase with a C-terminal RIDD tag) (enzyme)
chain: MAGQTTVDSRRQPPEEVDVLVVGAGFSGLYALYRLRELGRSVHVIETAGDVGGVWYWNRYPGARCDIESIEYCYSFSEEVLQEWNWTERYASQPEILRYINFVADKFDLRSGITFHTTVTAAAFDEATNTWTVDTNHGDRIRARYLIMASGQLSVPQLPNFPGLKDFAGNLYHTGNWPHEPVDFSGQRVGVIGTGSSGIQVSPQIAKQAAELFVFQRTPHFAVPARNAPLDPEFLADLKKRYAEFREESRNTPGGTHRYQGPKSALEVSDEELVETLERYWQEGGPDILAAYRDILRDRDANERVAEFIRNKIRNTVRDPEVAERLVPKGYPFGTKRLILEIDYYEMFNRDNVHLVDTLSAPIETITPRGVRTSEREYELDSLVLATGFDALTGALFKIDIRGVGNVALKEKWAAGPRTYLGLSTAGFPNLFFIAGPGSPSALSNMLVSIEQHVEWVTDHIAYMFKNGLTRSEAVLEKEDEWVEHVNEIADETLYPMTASWYTGANVPGKPRVFMLYVGGFHRYRQICDEVAAKGYEGFVLTGGGGSGGGGSGGGGSSLRECELYVQKHNIQALLKDSIVQLCTARPERPMAFLREYFERLEKEEAK
Question: With B1 as the binder, how does the “stoichiometry N” value [1] read?
Answer: 2

B2: PTDHI (phosphite dehydrogenase with a C-terminal RIDD tag) (enzyme)
chain: T1 chain
modifications: PTDH taken as the thermostable A176R variant of PDB 4E5P (cited in Figure 1); the exact pCRE2 variant and C-terminus are not printed. RIDD taken as the conventional RI-alpha docking domain …
Question: B2 was tested. Which “stoichiometry N” value [2] did it give?
Answer: 2
